How the values were obtained:
[1] = test system: HeLa Kyoto; assay: solubility in G1/S (NP-40 vs SDS abundance) (log2 ratio); higher = more soluble; details: cell cycle stage: G1/S
[2] = test system: HeLa Kyoto; assay: thermal stability score vs G1/S (z-score of summed log2 fold changes over temperatures); higher = more thermally stable than in G1/S
[3] = test system: HeLa Kyoto; assay: melting temperature (median over replicates), in situ; higher = more thermally stable
[4] = test system: HeLa Kyoto; assay: solubility change mitosis vs G1/S (difference of NP-40 vs SDS log2 ratios) (log2 ratio difference); higher = more soluble in mitosis
[5] = cell cycle stage: early G1 (4.5 h after nocodazole release)
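Wherever melting temperature (median over replicates), in situ is given: HeLa Kyoto cells synchronized by double thymidine or nocodazole block, proteins quantified by TMT10plex mass spectrometry, three independent biological replicates.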
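Wherever solubility change mitosis vs G1/S (difference of NP-40 vs SDS log2 ratios) is given: synchronized HeLa Kyoto cells (double thymidine block for G1/S, nocodazole release for mitosis), protein amounts in NP-40 versus SDS lysates quantified by mass spectrometry, three biological replicates.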
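Wherever solubility in G1/S (NP-40 vs SDS abundance) is given: HeLa Kyoto cells arrested at G1/S by double thymidine block, proteins quantified by TMT10plex mass spectrometry in mild NP-40 versus SDS extracts, three biological replicates.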
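Wherever thermal stability score vs G1/S (z-score of summed log2 fold changes over temperatures) is given: synchronized HeLa Kyoto cells, proteins quantified by TMT10plex mass spectrometry, three biological replicates, mitosis taken 0.5 h after nocodazole release, G1/S directly after double thymidine block.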

MSTGDSFETRFEKMDNLLRDPKSEVNSDCLLDGLDALVYDLDFPALRKNKNIDNFLSRYKDTINKIRDLRMKAEDYEVVKVIGRGAFGEVQLVRHKSTRKVYAMKLLSKFEMIKRSDSAFFWEERDIMAFANSPWVVQLFYAFQDDRYLYMVMEYMPGGDLVNLMSNYDVPEKWARFYTAEVVLALDAIHSMGFIHRDVKPDNMLLDKSGHLKLADFGTCMKMNKEGMVRCDTAVGTPDYISPEVLKSQGGDGYYGRECDWWSVGVFLYEMLVGDTPFYADSLVGTYSKIMNHKNSLTFPDDNDISKEAKNLICAFLTDREVRLGRNGVEEIKRHLFFKNDQWAWETLRDTVAPVVPDLSSDIDTSNFDDLEEDKGEEETFPIPKAFVGNQLPFVGFTYYSNRRYLSSANPNDNRTSSNADKSLQESLQKTIYKLEEQLHNEMQLKDEMEQKCRTSNIKLDKIMKELDEEGNQRRNLESTVSQIEKEKMLLQHRINEYQRKAEQENEKRRNVENEVSTLKDQLEDLKKVSQNSQLANEKLSQLQKQLEEANDLLRTESDTAVRLRKSHTEMSKSISQLESLNRELQERNRILENSKSQTDKDYYQLQAILEAERRDRGHDSEMIGDLQARITSLQEEVKHLKHNLEKVEGERKEAQDMLNHSEKEKNNLEIDLNYKLKSLQQRLEQEVNEHKVTKARLTDKHQSIEEAKSVAMCEMEKKLKEEREAREKAENRVVQIEKQCSMLDVDLKQSQQKLEHLTGNKERMEDEVKNLTLQLEQESNKRLLLQNELKTQAFEADNLKGLEKQMKQEINTLLEAKRLLEFELAQLTKQYRGNEGQMRELQDQLEAEQYFSTLYKTQVKELKEEIEEKNRENLKKIQELQNEKETLATQLDLAETKAESEQLARGLLEEQYFELTQESKKAASRNRQEITDKDHTVSRLEEANSMLTKDIEILRRENEELTEKMKKAEEEYKLEKEEEISNLKAAFEKNINTERTLKTQAVNKLAEIMNRKDFKIDRKKANTQDLRKKEKENRKLQLELNQEREKFNQMVVKHQKELNDMQAQLVEECAHRNELQMQLASKESDIEQLRAKLLDLSDSTSVASFPSADETDGNLPESRIEGWLSVPNRGNIKRYGWKKQYVVVSSKKILFYNDEQDKEQSNPSMVLDIDKLFHVRPVTQGDVYRAETEEIPKIFQILYANEGECRKDVEMEPVQQAEKTNFQNHKGHEFIPTLYHFPANCDACAKPLWHVFKPPPALECRRCHVKCHRDHLDKKEDLICPCKVSYDVTSARDMLLLACSQDEQKKWVTHLVKKIPKNPPSGFVRASPRTLSTRSTANQSFRKVVKNTSGKTS [ROCK1]
solubility in G1/S (log2) [1]: -0.0278
thermal stability score [2, 5]: -0.147
thermal stability score ([2]; cell cycle stage: mitosis): -0.118
melting temperature ([3]; cell cycle stage: G1/S): 50.4 °C
melting temperature ([3]; cell cycle stage: mitosis): 50.2 °C
solubility change mitosis (log2) [4]: -0.138

MSTKNFRVSDGDWICPDKKCGNVNFARRTSCNRCGREKTTEAKMMKAGGTEIGKTLAEKSRGLFSANDWQCKTCSNVNWARRSECNMCNTPKYAKLEERTGYGGGFNERENVEYIEREESDGEYDEFGRKKKKYRGKAVGPASILKEVEDKESEGEEEDEDEDLSKYKLDEDEDEDDADLSKYNLDASEEEDSNKKKSNRRSRSKSRSSHSRSSSRSSSPSSSRSRSRSRSRSSSSSQSRSRSSSRERSRSRGSKSRSSSRSHRGSSSPRKRSYSSSSSSPERNRKRSRSRSSSSGDRKKRRTRSRSPERRHRSSSGSSHSGSRSSSKKK [ZRANB2]
solubility in G1/S (log2) [1]: -0.0186
thermal stability score [2, 5]: 0.299
thermal stability score ([2]; cell cycle stage: mitosis): 0.397
melting temperature ([3]; cell cycle stage: G1/S): 58 °C
solubility change mitosis (log2) [4]: -0.011

MSTPAVPQDLQLPPSQRAQSAFKEQRRQKLKEHLLRRKTLFAYKQENEMLSSSRDQRVVTSEDQVQEGTKVLKLKTKMADKENMKRPAESKNNTVVGKHCIPLKPSNELTNSTVVIDTHKPKDSNQTPHLLLTEDDPQSQHMTLSQAFHLKNNSKKKQMTTEKQKQDANMPKKPVLGSYRGQIVQSKINSFRKPLQVKDESSAATKKLSATIPKATKPQPVNTSSVTVKSNRSSNMTATTKFVSTTSQNTQLVRPPIRSHHSNTRDTVKQGISRTSANVTIRKGPHEKELLQSKTALSSVKTSSSQGIIRNKTLSRSIASEVIARPASLSNDKLMEKSEPVDQRRHTAGKAIVDSRSAQPKETSEERKARLSEWKAGKGRVLKRPPNSVVTQHEPAGQNEKPVGSFWTTMAEEDEQRLFTEKVNNTFSECLNLINEGCPKEDILVTLNDLIKNIPDAKKLVKYWICLALIEPITSPIENIIAIYEKAILAGAQPIEEMRHTIVDILTMKSQEKANLGENMEKSCASKEEVKEVSIEDTGVDVDPEKLEMESKLHRNLLFQDCEKEQDNKTKDPTHDVKTPNTETRTSCLIKYNVSTTPYLQSVKKKVQFDGTNSAFKELKFLTPVRRSRRLQEKTSKLPDMLKDHYPCVSSLEQLTELGRETDAFVCRPNAALCRVYYEADTT [CKAP2]
solubility in G1/S (log2) [1]: -0.733
thermal stability score [2, 5]: -1.31
thermal stability score ([2]; cell cycle stage: mitosis): -0.259
melting temperature ([3]; cell cycle stage: G1/S): 51 °C
melting temperature ([3]; cell cycle stage: mitosis): 49.3 °C
solubility change mitosis (log2) [4]: 0.657

MSVACVLKRKAVLWQDSFSPHLKHHPQEPANPNMPVVLTSGTGSQAQPQPAANQALAAGTHSSPVPGSIGVAGRSQDDAMVDYFFQRQHGEQLGGGGSGGGGYNNSKHRWPTGDNIHAEHQVRSMDELNHDFQALALEGRAMGEQLLPGKKFWETDESSKDGPKGIFLGDQWRDSAWGTSDHSVSQPIMVQRRPGQSFHVNSEVNSVLSPRSESGGLGVSMVEYVLSSSPGDSCLRKGGFGPRDADSDENDKGEKKNKGTFDGDKLGDLKEEGDVMDKTNGLPVQNGIDADVKDFSRTPGNCQNSANEVDLLGPNQNGSEGLAQLTSTNGAKPVEDFSNMESQSVPLDPMEHVGMEPLQFDYSGTQVPVDSAAATVGLFDYNSQQQLFQRPNALAVQQLTAAQQQQYALAAAHQPHIGLAPAAFVPNPYIISAAPPGTDPYTAGLAAAATLGPAVVPHQYYGVTPWGVYPASLFQQQAAAAAAATNSANQQTTPQAQQGQQQVLRGGASQRPLTPNQNQQGQQTDPLVAAAAVNSALAFGQGLAAGMPGYPVLAPAAYYDQTGALVVNAGARNGLGAPVRLVAPAPVIISSSAAQAAVAAAAASANGAAGGLAGTTNGPFRPLGTQQPQPQPQQQPNNNLASSSFYGNNSLNSNSQSSSLFSQGSAQPANTSLGFGSSSSLGATLGSALGGFGTAVANSNTGSGSRRDSLTGSSDLYKRTSSSLTPIGHSFYNGLSFSSSPGPVGMPLPSQGPGHSQTPPPSLSSHGSSSSLNLGGLTNGSGRYISAAPGAEAKYRSASSASSLFSPSSTLFSSSRLRYGMSDVMPSGRSRLLEDFRNNRYPNLQLREIAGHIMEFSQDQHGSRFIQLKLERATPAERQLVFNEILQAAYQLMVDVFGNYVIQKFFEFGSLEQKLALAERIRGHVLSLALQMYGCRVIQKALEFIPSDQQNEMVRELDGHVLKCVKDQNGNHVVQKCIECVQPQSLQFIIDAFKGQVFALSTHPYGCRVIQRILEHCLPDQTLPILEELHQHTEQLVQDQYGNYVIQHVLEHGRPEDKSKIVAEIRGNVLVLSQHKFASNVVEKCVTHASRTERAVLIDEVCTMNDGPHSALYTMMKDQYANYVVQKMIDVAEPGQRKIVMHKIRPHIATLRKYTYGKHILAKLEKYYMKNGVDLGPICGPPNGII [PUM1]
solubility in G1/S (log2) [1]: 0.186
thermal stability score [2, 5]: -1.3
thermal stability score ([2]; cell cycle stage: mitosis): -1.48
melting temperature ([3]; cell cycle stage: G1/S): 51.5 °C
melting temperature ([3]; cell cycle stage: mitosis): 51 °C
solubility change mitosis (log2) [4]: -0.102

MSVEAYGPSSQTLTFLDTEEAELLGADTQGSEFEFTDFTLPSQTQTPPGGPGGPGGGGAGGPGGAGAGAAAGQLDAQVGPEGILQNGAVDDSVAKTSQLLAELNFEEDEEDTYYTKDLPIHACSYCGIHDPACVVYCNTSKKWFCNGRGNTSGSHIVNHLVRAKCKEVTLHKDGPLGETVLECYNCGCRNVFLLGFIPAKADSVVVLLCRQPCASQSSLKDINWDSSQWQPLIQDRCFLSWLVKIPSEQEQLRARQITAQQINKLEELWKENPSATLEDLEKPGVDEEPQHVLLRYEDAYQYQNIFGPLVKLEADYDKKLKESQTQDNITVRWDLGLNKKRIAYFTLPKTDSGNEDLVIIWLRDMRLMQGDEICLRYKGDLAPLWKGIGHVIKVPDNYGDEIAIELRSSVGAPVEVTHNFQVDFVWKSTSFDRMQSALKTFAVDETSVSGYIYHKLLGHEVEDVIIKCQLPKRFTAQGLPDLNHSQVYAVKTVLQRPLSLIQGPPGTGKTVTSATIVYHLARQGNGPVLVCAPSNIAVDQLTEKIHQTGLKVVRLCAKSREAIDSPVSFLALHNQIRNMDSMPELQKLQQLKDETGELSSADEKRYRALKRTAERELLMNADVICCTCVGAGDPRLAKMQFRSILIDESTQATEPECMVPVVLGAKQLILVGDHCQLGPVVMCKKAAKAGLSQSLFERLVVLGIRPIRLQVQYRMHPALSAFPSNIFYEGSLQNGVTAADRVKKGFDFQWPQPDKPMFFYVTQGQEEIASSGTSYLNRTEAANVEKITTKLLKAGAKPDQIGIITPYEGQRSYLVQYMQFSGSLHTKLYQEVEIASVDAFQGREKDFIILSCVRANEHQGIGFLNDPRRLNVALTRARYGVIIVGNPKALSKQPLWNHLLNYYKEQKVLVEGPLNNLRESLMQFSKPRKLVNTINPGARFMTTAMYDAREAIIPGSVYDRSSQGRPSSMYFQTHDQIGMISAGPSHVAAMNIPIPFNLVMPPMPPPGYFGQANGPAAGRGTPKGKTGRGGRQKNRFGLPGPSQTNLPNSQASQDVASQPFSQGALTQGYISMSQPSQMSQPGLSQPELSQDSYLGDEFKSQIDVALSQDSTYQGERAYQHGGVTGLSQY [UPF1]
solubility in G1/S (log2) [1]: 0.0497
thermal stability score [2, 5]: -3.14
thermal stability score ([2]; cell cycle stage: mitosis): -8.04
melting temperature ([3]; cell cycle stage: G1/S): 54.3 °C
melting temperature ([3]; cell cycle stage: mitosis): 52.3 °C
solubility change mitosis (log2) [4]: -0.0177

MSVRVARVAWVRGLGASYRRGASSFPVPPPGAQGVAELLRDATGAEEEAPWAATERRMPGQCSVLLFPGQGSQVVGMGRGLLNYPRVRELYAAARRVLGYDLLELSLHGPQETLDRTVHCQPAIFVASLAAVEKLHHLQPSVIENCVAAAGFSVGEFAALVFAGAMEFAEGLYAVKIRAEAMQEASEAVPSGMLSVLGQPQSKFNFACLEAREHCKSLGIENPVCEVSNYLFPDCRVISGHQEALRFLQKNSSKFHFRRTRMLPVSGAFHTRLMEPAVEPLTQALKAVDIKKPLVSVYSNVHAHRYRHPGHIHKLLAQQLVSPVKWEQTMHAIYERKKGRGFPQTFEVGPGRQLGAILKSCNMQAWKSYSAVDVLQTLEHVDLDPQEPPR [MCAT]
solubility in G1/S (log2) [1]: 0.3
thermal stability score [2, 5]: -1.29
thermal stability score ([2]; cell cycle stage: mitosis): -2.74
melting temperature ([3]; cell cycle stage: G1/S): 53.7 °C
melting temperature ([3]; cell cycle stage: mitosis): 54.9 °C
solubility change mitosis (log2) [4]: -0.00154

MSVRVARVAWVRGLGASYRRGASSFPVPPPGAQGVAELLRDATGAEEEAPWAATERRMPGQCSVLLFPGQGSQVVGMGRGLLNYPRVRELYAAARRVLGYDLLELSLHGPQETLDRTVHCQPAIFVASLAAVEKLHHLQPSVIENCVAAAGFSVGEFAALVFAGAMEFAEGLYAVKIRAEAMQEASEAVPSGMLSVLGQPQSKFNFACLEAREHCKSLGIENPVCEVSNYLFPDCRVISGHQEALRFLQKNSSKFHFRRTRMLPVSGAFHTRLMEPAVEPLTQALKAVDIKKPLVSVYSNVHAHRYRHPGHIHKLLAQQLVSPVKWEQTMHAIYERKKGRGFPQTFEVGPGRQLGAILKSCNMQAWKSYSAVDVLQTLEHVDLDPQEPPR [MT]
solubility in G1/S (log2) [1]: -0.124
thermal stability score [2, 5]: -1.31
thermal stability score ([2]; cell cycle stage: mitosis): -2.45
melting temperature ([3]; cell cycle stage: G1/S): 59 °C
melting temperature ([3]; cell cycle stage: mitosis): 56.6 °C
solubility change mitosis (log2) [4]: -0.162

MSVTYDDSVGVEVSSDSFWEVGNYKRTVKRIDDGHRLCSDLMNCLHERARIEKAYAQQLTEWARRWRQLVEKGPQYGTVEKAWMAFMSEAERVSELHLEVKASLMNDDFEKIKNWQKEAFHKQMMGGFKETKEAEDGFRKAQKPWAKKLKEVEAAKKAHHAACKEEKLAISREANSKADPSLNPEQLKKLQDKIEKCKQDVLKTKEKYEKSLKELDQGTPQYMENMEQVFEQCQQFEEKRLRFFREVLLEVQKHLDLSNVAGYKAIYHDLEQSIRAADAVEDLRWFRANHGPGMAMNWPQFEEWSADLNRTLSRREKKKATDGVTLTGINQTGDQSLPSKPSSTLNVPSNPAQSAQSQSSYNPFEDEDDTGSTVSEKDDTKAKNVSSYEKTQSYPTDWSDDESNNPFSSTDANGDSNPFDDDATSGTEVRVRALYDYEGQEHDELSFKAGDELTKMEDEDEQGWCKGRLDNGQVGLYPANYVEAIQ [PACSIN2]
solubility in G1/S (log2) [1]: 0.218
thermal stability score [2, 5]: 1.11
thermal stability score ([2]; cell cycle stage: mitosis): 1.7
melting temperature ([3]; cell cycle stage: G1/S): 49.6 °C
melting temperature ([3]; cell cycle stage: mitosis): 49.7 °C
solubility change mitosis (log2) [4]: -0.0385
